Laboratory results published in patent publication US20210069342A1 (LEGOCHEM BIOSCIENCES, published 2021).

How the values were obtained:
[1] = biological target: T1, human ROR1 expressed on the cell surface (human, UniProt Q01973 30-937); assay: flow cytometry on A549 cells (lung cancer), C2E3 IgG, FITC anti-human Fc detection
T1 construct: whole, on cells; also called cell surface-expressed ROR1 antigen; ROR1 on JeKo-1, Mino, CHO-human ROR1, MC38-human ROR1 and other cancer cell lines
Method: (§1) FACS analysis (FACSCalibur, BD Biosciences) was used to analyze the binding of the anti-ROR1 antibody of the present invention to ROR1 in the above cell lines.
(§2) Specifically, the respective cell lines were dissociated and washed in PBS, then the numbers of cells were counted and adjusted to 2×10⁵ cells/200 PBS. Then, they were treated with 10 /mL of the antibody of clone name C2E3 of the ROR1 monoclonal antibodies prepared in Embodiment 3, and reacted for 1 hour at 4° C. After the reaction, the cells were washed in PBS, then FITC-marked constant region (Fc) specific antibody (Goat anti-human IgG FITC conjugate, Fc specific, Sigma, F9512, concentration 20 mg/ml) was suspended in 2 /1×10⁵ cells/200 PBS and reacted for 1 hour at 4° C. After reacting, the cells were washed with PBS and analyzed with the FACSCalibur equipment. The negative control was only treated with FITC-marked constant region (Fc) specific antibody. To compare the degree of ROR1 expression among the respective cancer cell lines, the quotient of dividing the shifted readings for the experimental group treated with the ROR1 monoclonal antibody (C2E3) of the present invention by the shifted readings for the control group (MFI Ratio: MFI of anti-ROR1/MFI or 2nd Ab) is indicated.

[2] = biological target: T1, human ROR1 expressed on the cell surface; assay: flow cytometry on NCI-N87 cells (gastric cancer), C2E3 IgG, FITC anti-human Fc detection
Method: as §1, §2

[3] = biological target: T1, human ROR1 expressed on the cell surface; assay: flow cytometry on HCC1187 cells (breast cancer), C2E3 IgG, FITC anti-human Fc detection
Method: as §1, §2

[4] = biological target: T1, human ROR1 expressed on the cell surface; assay: flow cytometry on HCC70 cells (breast cancer), C2E3 IgG, FITC anti-human Fc detection
Method: as §1, §2

[5] = biological target: T1, human ROR1 expressed on the cell surface; assay: flow cytometry on HCT116 cells (colon cancer), C2E3 IgG, FITC anti-human Fc detection
Method: as §1, §2

[6] = biological target: T1, human ROR1 expressed on the cell surface; assay: flow cytometry on SNU-1750 cells (gastric cancer), C2E3 IgG, FITC anti-human Fc detection
Method: as §1, §2

[7] = biological target: T1, human ROR1 expressed on the cell surface; assay: flow cytometry on HCC1143 cells (breast cancer), C2E3 IgG, FITC anti-human Fc detection
Method: as §1, §2

[8] = biological target: T1, human ROR1 expressed on the cell surface; assay: flow cytometry on BT474 cells (breast cancer), C2E3 IgG, FITC anti-human Fc detection
Method: as §1, §2

[9] = biological target: T2, recombinant mouse ROR1 protein (Acrobiosystems, RO1-M5221) (mouse, UniProt Q9Z139 30-403); assay: ELISA, wells coated with recombinant mouse ROR1 protein, IgG titrated, HRP anti-Fab detection, OD (450-650nm)
T2 construct: Bought protein; also called mouse ROR1 antigen
T2 sequence (Q9Z139 30-403 limits assumed): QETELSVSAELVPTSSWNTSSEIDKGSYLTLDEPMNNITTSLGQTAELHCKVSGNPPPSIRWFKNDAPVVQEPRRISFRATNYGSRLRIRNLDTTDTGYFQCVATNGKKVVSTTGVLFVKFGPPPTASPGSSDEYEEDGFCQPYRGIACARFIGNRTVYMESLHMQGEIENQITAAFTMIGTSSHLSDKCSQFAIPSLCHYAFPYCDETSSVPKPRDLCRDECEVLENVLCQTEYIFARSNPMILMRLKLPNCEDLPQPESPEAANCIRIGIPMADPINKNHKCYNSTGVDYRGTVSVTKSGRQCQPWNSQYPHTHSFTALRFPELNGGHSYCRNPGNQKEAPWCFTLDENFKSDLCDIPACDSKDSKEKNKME

T1 sequence (Q01973 30-937): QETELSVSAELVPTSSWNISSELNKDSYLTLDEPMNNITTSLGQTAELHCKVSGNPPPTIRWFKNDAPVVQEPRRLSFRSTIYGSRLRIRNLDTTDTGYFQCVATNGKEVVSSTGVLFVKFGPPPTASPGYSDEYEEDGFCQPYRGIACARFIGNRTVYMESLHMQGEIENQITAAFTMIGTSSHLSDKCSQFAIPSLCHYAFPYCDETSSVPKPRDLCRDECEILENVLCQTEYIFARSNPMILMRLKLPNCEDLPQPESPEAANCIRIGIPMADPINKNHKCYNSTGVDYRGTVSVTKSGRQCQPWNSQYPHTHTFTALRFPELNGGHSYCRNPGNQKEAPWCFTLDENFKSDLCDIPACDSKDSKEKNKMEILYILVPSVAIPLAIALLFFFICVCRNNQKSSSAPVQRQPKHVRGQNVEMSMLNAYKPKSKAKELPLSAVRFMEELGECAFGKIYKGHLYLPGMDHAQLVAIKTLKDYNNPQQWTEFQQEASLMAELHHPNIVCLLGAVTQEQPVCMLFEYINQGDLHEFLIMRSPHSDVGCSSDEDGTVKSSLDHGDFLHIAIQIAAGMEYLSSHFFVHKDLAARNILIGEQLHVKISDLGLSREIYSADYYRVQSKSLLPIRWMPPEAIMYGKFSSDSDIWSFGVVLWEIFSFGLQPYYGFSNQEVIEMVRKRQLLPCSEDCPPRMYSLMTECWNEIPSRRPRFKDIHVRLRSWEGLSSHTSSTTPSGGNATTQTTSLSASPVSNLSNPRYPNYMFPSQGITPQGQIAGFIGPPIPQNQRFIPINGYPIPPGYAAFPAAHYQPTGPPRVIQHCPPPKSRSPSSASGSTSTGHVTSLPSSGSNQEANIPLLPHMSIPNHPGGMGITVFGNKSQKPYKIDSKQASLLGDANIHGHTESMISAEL

B1: anti-ROR1 IgG antibody C2E3 (antibody, V domains shown)
VH: EVQLLESGGGLVQPGGSLRLSCAASGFTFSNYAMSWVRQAPGKGLEWVSSISHNSGSTYYADSVKGRFTISRDNSKNTLYLQMNSLRAEDTAVYYCAKFISARKSLGRSYSNGMDVWGQGTLVTVSS
VL: QSVLTQPPSASGTPGQRVTISCTGSSSNIGSNDVTWYQQLPGTAPKLLIYADSKRPSGVPDRFSGSKSGTSASLAISGLRSEDEADYYCGTWDYSLSGYVFGGGTKLTVLG
notes: Full IgG form (human IgG1 constant region, lambda light chain), expressed in CHO-S cells
Q: Which results are given for B1?
A: Mean Fold Ratio (MFI of anti-ROR1 / MFI of 2nd Ab) [1]: 6; Mean Fold Ratio (MFI of anti-ROR1 / MFI of 2nd Ab) [2]: 11.8; Mean Fold Ratio (MFI of anti-ROR1 / MFI of 2nd Ab) [3]: 9.3; Mean Fold Ratio (MFI of anti-ROR1 / MFI of 2nd Ab) [4]: 3.8; Mean Fold Ratio (MFI of anti-ROR1 / MFI of 2nd Ab) [5]: 18; Mean Fold Ratio (MFI of anti-ROR1 / MFI of 2nd Ab) [6]: 3.9; Mean Fold Ratio (MFI of anti-ROR1 / MFI of 2nd Ab) [7]: 3.2; Mean Fold Ratio (MFI of anti-ROR1 / MFI of 2nd Ab) [8]: 1.7; EC50 (read off the curve) [9]: ~300 pM
